These results are taken from US20210261648A1 (published 2021).

Experiment in all cases: SPR, captured antibody, FcgR analyte
On the technique in general: In SPR one partner is held on a chip, and binding of the other changes the refractive index at the surface.

In experiment [1] the target is T1, FcγRIa extracellular domain with C-terminal His tag (human, UniProt P12314 16-292).
T1 construct: also called FcgRIa
Protocol: (§1) Relative binding activities were calculated for the results of analyzing interactions with the respective FcγRs according to the following method.

Experiment [2] concerns the target T2, FcγRIIa type H extracellular domain with C-terminal His tag (human, UniProt P12318 34-217).
T2 construct: extracellular domain; also called FcgRIIaH; FcγRIIa H
T2 sequence (looked up): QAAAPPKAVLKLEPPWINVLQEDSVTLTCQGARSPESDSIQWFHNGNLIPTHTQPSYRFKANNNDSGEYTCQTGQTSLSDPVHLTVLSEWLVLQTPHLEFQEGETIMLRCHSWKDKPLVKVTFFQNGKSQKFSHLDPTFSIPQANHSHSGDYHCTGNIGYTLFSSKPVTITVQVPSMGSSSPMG
Protocol: as §1

Experiment [3] has as its target T3, FcγRIIb extracellular domain with C-terminal His tag (human, UniProt P31994 43-217).
T3 construct: extracellular domain; also called FcgRIIb
T3 sequence (looked up): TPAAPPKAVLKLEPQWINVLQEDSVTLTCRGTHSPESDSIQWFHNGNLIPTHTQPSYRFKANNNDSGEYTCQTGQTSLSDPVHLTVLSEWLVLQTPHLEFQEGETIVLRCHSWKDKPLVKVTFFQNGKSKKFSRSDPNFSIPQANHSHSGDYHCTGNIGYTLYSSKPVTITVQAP
Protocol: as §1

T1 sequence (P12314 16-292): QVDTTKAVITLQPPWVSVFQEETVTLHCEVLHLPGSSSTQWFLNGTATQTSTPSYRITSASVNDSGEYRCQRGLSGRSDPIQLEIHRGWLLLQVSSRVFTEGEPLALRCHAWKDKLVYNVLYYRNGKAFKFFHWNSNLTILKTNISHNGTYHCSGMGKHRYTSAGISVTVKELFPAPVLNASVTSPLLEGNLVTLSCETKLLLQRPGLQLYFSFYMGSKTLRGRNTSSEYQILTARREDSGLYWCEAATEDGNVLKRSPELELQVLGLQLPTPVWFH

B1: IL6R-BP200/IL6R-L (antibody, human IgG1, kappa)
heavy: QVQLQESGPGLVKPSETLSLTCAVSGHSISHDHAWSWVRQPPGEGLEWIGFISYSGITNYNPSLQGRVTISRDNSKNTLYLQMNSLRAEDTAVYYCARSLARTTAMDYWGEGTLVTVSSASTKGPSVFPLAPSSKSTSGGTAALGCLVKDYFPEPVTVSWNSGALTSGVHTFPAVLQSSGLYSLSSVVTVPSSSLGTQTYICNVNHKPSNTKVDKKVEPKSCDKTHTCPPCPAPDYLGDDSVFLFPPKPKDTLMISRTPEVTCVVVDVSHEDGEVKFNWYVDGVEVHNAKTKPREEQYNSTYRVVSVLTVLHQDWLNGKEYKCKVSNDALPRPIEKTISKAKGQPREPQVYTLPPSRDELTKNQVSLTCLVKGFYPSDIAVEWESNGQPENNYKTTPPVLDSDGSFFLYSKLTVDKSRWQQGNVFSCSVMHEALHNHYTQESLSLSP
light: not shown
For the molecule B1, the relative binding activity in experiment [1] is 60 relative (IL6R-BF648/IL6R-L = 100); in experiment [2], 517 relative (IL6R-BF648/IL6R-L = 100); in experiment [3], 188 relative (IL6R-BF648/IL6R-L = 100).

B2: IL6R-BP210/IL6R-L (antibody, human IgG1, kappa)
heavy: QVQLQESGPGLVKPSETLSLTCAVSGHSISHDHAWSWVRQPPGEGLEWIGFISYSGITNYNPSLQGRVTISRDNSKNTLYLQMNSLRAEDTAVYYCARSLARTTAMDYWGEGTLVTVSSASTKGPSVFPLAPSSKSTSGGTAALGCLVKDYFPEPVTVSWNSGALTSGVHTFPAVLQSSGLYSLSSVVTVPSSSLGTQTYICNVNHKPSNTKVDKKVEPKSCDKTHTCPPCPAPELLGDDSVFLFPPKPKDTLMISRTPEVTCVVVDVSDEDGEVKFNWYVDGVEVHNAKTKPREEQYNSTYRVVSVLTVLHQDWLNGKEYKCKVSNKALPRPIEKTISKAKGQPREPQVYTLPPSRDELTKNQVSLTCLVKGFYPSDIAVEWESNGQPENNYKTTPPVLDSDGSFFLYSKLTVDKSRWQQGNVFSCSVMHEALHNHYTQESLSLSP
light: not shown
Regarding B2, the relative binding activity in experiment [1] was 57 relative (IL6R-BF648/IL6R-L = 100); in experiment [2] it was 279 relative (IL6R-BF648/IL6R-L = 100); in experiment [3], 187 relative (IL6R-BF648/IL6R-L = 100).

B3: IL6R-BP202/IL6R-L (antibody, human IgG1, kappa)
heavy: QVQLQESGPGLVKPSETLSLTCAVSGHSISHDHAWSWVRQPPGEGLEWIGFISYSGITNYNPSLQGRVTISRDNSKNTLYLQMNSLRAEDTAVYYCARSLARTTAMDYWGEGTLVTVSSASTKGPSVFPLAPSSKSTSGGTAALGCLVKDYFPEPVTVSWNSGALTSGVHTFPAVLQSSGLYSLSSVVTVPSSSLGTQTYICNVNHKPSNTKVDKKVEPKSCDKTHTCPPCPAPELLGDDSVFLFPPKPKDTLMISRTPEVTCVVVDVSHEDGEVKFNWYVDGVEVHNAKTKPREEQYNSTYRVVSVLTVLHQDWLNGKEYKCKVSNAALPRPIEKTISKAKGQPREPQVYTLPPSRDELTKNQVSLTCLVKGFYPSDIAVEWESNGQPENNYKTTPPVLDSDGSFFLYSKLTVDKSRWQQGNVFSCSVMHEALHNHYTQESLSLSP
light: not shown
For B3, the figures for the relative binding activity in experiment [1], in experiment [2] and in experiment [3] were 43 relative (IL6R-BF648/IL6R-L = 100), 285 relative (IL6R-BF648/IL6R-L = 100) and 185 relative (IL6R-BF648/IL6R-L = 100), respectively.

B4: IL6R-BP201/IL6R-L (antibody, human IgG1, kappa)
heavy: QVQLQESGPGLVKPSETLSLTCAVSGHSISHDHAWSWVRQPPGEGLEWIGFISYSGITNYNPSLQGRVTISRDNSKNTLYLQMNSLRAEDTAVYYCARSLARTTAMDYWGEGTLVTVSSASTKGPSVFPLAPSSKSTSGGTAALGCLVKDYFPEPVTVSWNSGALTSGVHTFPAVLQSSGLYSLSSVVTVPSSSLGTQTYICNVNHKPSNTKVDKKVEPKSCDKTHTCPPCPAPDLLGDDSVFLFPPKPKDTLMISRTPEVTCVVVDVSHEDGEVKFNWYVDGVEVHNAKTKPREEQYNSTYRVVSVLTVLHQDWLNGKEYKCKVSNKALPRPIEKTISKAKGQPREPQVYTLPPSRDELTKNQVSLTCLVKGFYPSDIAVEWESNGQPENNYKTTPPVLDSDGSFFLYSKLTVDKSRWQQGNVFSCSVMHEALHNHYTQESLSLSP
light: not shown
Take B4: the relative binding activity in experiment [1] was 57 relative (IL6R-BF648/IL6R-L = 100); in experiment [2] it was 359 relative (IL6R-BF648/IL6R-L = 100); in experiment [3] it was 186 relative (IL6R-BF648/IL6R-L = 100).
